Results on eleven molecules are retold here after PMC9808734 (Nature Communications, 2023).

The assay addresses HLA-A3 on CFPAC parental cells (Homo sapiens, HLA-A3 serotype, allele …, strain).

B1: HLAA3_6 (VHH)
VHH: EVQLVESGGGLVQPGGSLRLSCAASGFNIFGYYMHWVRQAPGKGLEWVAVVSPGSGYTNYADSVKGRFTISADTSKNTAYLQMNSLRAEDTAVYYCSRALYSAYFAYWGQGTLVTVSS
For the molecule B1, the binding result is on record as “binds”.

B2: HLAA3_2 (VHH)
VHH: EVQLVESGGGLVQPGGSLRLSCAASGFNITKYSIHWVRQAPGKGLEWVAMVGPYSSYTYYADSVKGRFTISADTSKNTAYLQMNSLRAEDTAVYYCSRFYSSYAFDVWGQGTLVTVSS
B2: the binding result is “binds”.

B3: HLAA3_8 (VHH)
VHH: EVQLVESGGGLVQPGGSLRLSCAASGFNIYSYYIHWVRQAPGKGLEWVAKIYPDSGYTYYADSVKGRFTISADTSKNTAYLQMNSLRAEDTAVYYCSRSFSRYGYMDYWGQGTLVTVSS
For the molecule B3, the binding result was “binds”.

B4: HLAA3_11 (VHH)
VHH: EVQLVESGGGLVQPGGSLRLSCAASGFNIYSYGIHWVRQAPGKGLEWVAKVSPSSGYTYYADSVKGRFTISADTSKNTAYLQMNSLRAEDTAVYYCSRQYGYPYYFDYWGQGTLVTVSS
Consider B4, for which the binding result was “binds”.

B5: HLAA3_10 (VHH)
VHH: EVQLVESGGGLVQPGGSLRLSCAASGFNVYYSGMHWVRQAPGKGLEWVAKISPDSGSTYYADSVKGRFTISADTSKNTAYLQMNSLRAEDTAVYYCSRDMYSVRSAMDYWGQGTLVTVSS
For the molecule B5, the binding result was “binds”.

B6: HLAA3_4 (VHH)
VHH: EVQLVESGGGLVQPGGSLRLSCAASGFNIYSYAMHWVRQAPGKGLEWVASFVPGSYATYYADSVKGRFTISADTSKNTAYLQMNSLRAEDTAVYYCSRGYYASYYFDVWGQGTLVTVSS
As to B6, the binding result was “binds”.

B7: HLAA3_3 (VHH)
VHH: EVQLVESGGGLVQPGGSLRLSCAASGFNIYSYAMHWVRQAPGKGLEWVASVAPGSGYTYYADSVKGRFTISADTSKNTAYLQMNSLRAEDTAVYYCSRNKYYTAYYMDYWGQGTLVTVSS
Turning to B7, the binding result is recorded as “binds”.

B8: HLAA3_5 (VHH)
VHH: EVQLVESGGGLVQPGGSLRLSCAASGFNLSYYWMHWVRQAPGKGLEWVASIYPDGSYTWYADSVKGRFTISADTSKNTAYLQMNSLRAEDTAVYYCSRGTYFAMDYWGQGTLVTVSS
Regarding B8, the binding result is reported as “binds”.

B9: HLAA3_7 (VHH)
VHH: EVQLVESGGGLVQPGGSLRLSCAASGFNVYYYWMHWVRQAPGKGLEWVASIYPDSDNTYYADSVKGRFTISADTSKNTAYLQMNSLRAEDTAVYYCSRGDYYYSYLDYWGQGTLVTVSS
Regarding B9, the binding result is on record as “binds”.

B10: HLAA3_9 (VHH)
VHH: EVQLVESGGGLVQPGGSLRLSCAASGFNISTWLIHWVRQAPGKGLEWVAVVYPDSSYTYYADSVKGRFTISADTSKNTAYLQMNSLRAEDTAVYYCSRSWFSKSAMDYWGQGTLVTVSS
With B10, the binding result was “binds”.

B11: HLAA3_1 (VHH)
VHH: EVQLVESGGGLVQPGGSLRLSCAASGFNVQGDGMHWVRQAPGKGLEWVAMVGPYSSYTYYADSVKGRFTISADTSKNTAYLQMNSLRAEDTAVYYCSRYSDGAFDYWGQGTLVTVSS
Consider B11, for which the binding result was “binds”.
